Results on 64 sequences are retold here after the supplement of paper PMC7877785.

This data set in a line: self-splicing fitness, log relative to wild type (ln ratio); higher = more splicing; Tetrahymena group I intron in knt gene, E. coli kanamycin selection, DiMSum; sequences stand for … in CUCUCU…GGAGGGAAAAGUUAUCAGGCAUGCACCUGGUAGCUAGUCUUUAAACCAAUAGAUUGCAUCGGUUUAAAAGGCAAGACCGUCAAAUUGCGGGAAAGGGGUCAACAGCCGUUCAGUACCAAGUCUCAGGGGAAACUUUGAGAUGGCCUUGCAAAGGGUAUGGUAAUAAGCUGACGGACAUGGUCCUAACCACGCAGCCAAGUCCUAAGUCAACAGAUCUUCUGUUGAUAUGGAUGCAGUUCACAGACUAAAUGUCGGUCGGGGAAGAUGUAUUCUUCUCAUAAGAUAUAGUCGGACCUCUCCUUAAUGGGAGCUAGCGGAUGAAGUGAUGCAACACUGGAGCCGCUGGGAACUAAUUUGUAUGCGAAAGUAUAUUGAUUAGUUUUGGAGUACUCGUGGUCG
In a few lines:
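Colonies from six replicate transformations of E. coli BL21(DE3) were pooled and amplicon-sequenced on an Illumina HiSeq 2500. The library placed an intron with all eight P1ex-region nucleotides randomised inside the knt kanamycin-resistance gene on pET-22b(+), and cells grew overnight at 37°C or 30°C on LB agar with or without 25 μg/mL kanamycin (plus 100 μg/mL carbenicillin, 50 μM IPTG, 0.2% rhamnose). Fitness is the DiMSum error-weighted combination of wild-type-normalised replicate fold changes, kanamycin versus none.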

± gives the uncertainty stated by the source.

In the case of AGAGAGCAAUAUUACGCGAC, the “self-splicing fitness (ln)” value (30 °C) was -2.11 ± 0.34 and the “self-splicing fitness (ln)” value (37 °C) was -1.87 ± 0.39.

On to UUUCAGCAAUAUUACGUGUG, for which the “self-splicing fitness (ln)” value was -0.986 ± 0.067 (30 °C) and -0.142 ± 0.075 (37 °C).

Take AUCGAGCAAUAUUACGGUCG: the “self-splicing fitness (ln)” value (30 °C) is -2.73 ± 0.38.

With UGACAGCAAUAUUACGGCGG, the “self-splicing fitness (ln)” value by setting is: (30 °C) -0.935 ± 0.053; (37 °C) 0.0557 ± 0.072.

For the sequence UCCCAGCAAUAUUACGCGGC, the “self-splicing fitness (ln)” value (37 °C) was -0.462 ± 0.4.

Regarding GGCCAGCAAUAUUACGUUGC, the “self-splicing fitness (ln)” value runs as follows: (30 °C) -1.58 ± 0.071; (37 °C) -0.74 ± 0.081.

As for AGGCAGCAAUAUUACGAAGA, the “self-splicing fitness (ln)” value is, setting by setting: (30 °C) -1.96 ± 0.29; (37 °C) -1.12 ± 0.18.

Consider GUCAAGCAAUAUUACGUUCC, for which the “self-splicing fitness (ln)” value (30 °C) is -1.5 ± 0.11 and the “self-splicing fitness (ln)” value (37 °C) is -0.728 ± 0.13.

On to GGGGAGCAAUAUUACGUAGC, for which the “self-splicing fitness (ln)” value is -2.01 ± 0.24 (30 °C) and -1.91 ± 0.36 (37 °C).

Turning to UUUCAGCAAUAUUACGCGGU, the “self-splicing fitness (ln)” value by setting is: (30 °C) -3.46 ± 0.25; (37 °C) -1.92 ± 0.2.

For the sequence AAAUAGCAAUAUUACGAGUC, the “self-splicing fitness (ln)” value (30 °C) is -3.89 ± 0.33 and the “self-splicing fitness (ln)” value (37 °C) is -2.2 ± 0.36.

With CCGCAGCAAUAUUACGACCU, the “self-splicing fitness (ln)” value (30 °C) is -3.36 ± 0.23 and the “self-splicing fitness (ln)” value (37 °C) is -2.63 ± 0.29.

In the case of CUAAAGCAAUAUUACGGCAC, under “30 °C”, the “self-splicing fitness (ln)” value was -2.96 ± 0.22.

Turning to CCGCAGCAAUAUUACGAAAG, the “self-splicing fitness (ln)” value runs as follows: (30 °C) -0.925 ± 0.066; (37 °C) 0.125 ± 0.084.

In the case of UUUUAGCAAUAUUACGUCUU, the “self-splicing fitness (ln)” value (30 °C) is -2.43 ± 0.18 and the “self-splicing fitness (ln)” value (37 °C) was -1.33 ± 0.19.

Regarding GAACAGCAAUAUUACGCACC, the “self-splicing fitness (ln)” value by setting is: (30 °C) -0.638 ± 0.096; (37 °C) 0.0849 ± 0.097.

For the sequence CUUCAGCAAUAUUACGUCGU, the “self-splicing fitness (ln)” value is -4.07 ± 0.14 (30 °C) and -2.88 ± 0.12 (37 °C).

As for UUUGAGCAAUAUUACGAGUU, the “self-splicing fitness (ln)” value (37 °C) is -1.87 ± 0.42.

Regarding ACAAAGCAAUAUUACGCGGG, the “self-splicing fitness (ln)” value by setting is: (30 °C) -2.47 ± 0.09; (37 °C) -1.01 ± 0.09.

AAAUAGCAAUAUUACGCAUC: the “self-splicing fitness (ln)” value is, setting by setting: (30 °C) -3.65 ± 0.47; (37 °C) -0.111 ± 0.22.

Consider UUCCAGCAAUAUUACGCUUG, for which the “self-splicing fitness (ln)” value was -2.97 ± 0.21 (30 °C) and -1.94 ± 0.22 (37 °C).

CGCCAGCAAUAUUACGCAUC: the “self-splicing fitness (ln)” value was -3.71 ± 0.16 (30 °C) and -2.74 ± 0.17 (37 °C).

With GAUGAGCAAUAUUACGGCGA, the “self-splicing fitness (ln)” value by setting is: (30 °C) -2.19 ± 0.17; (37 °C) -1.38 ± 0.13.

On to CUAGAGCAAUAUUACGAUAC, for which the “self-splicing fitness (ln)” value by setting is: (30 °C) -2.63 ± 0.35; (37 °C) -2.25 ± 0.34.

For the sequence GCGUAGCAAUAUUACGGUUC, the “self-splicing fitness (ln)” value is -2.26 ± 0.14 (30 °C) and -0.643 ± 0.18 (37 °C).

On to GUGAAGCAAUAUUACGGAUC, for which the “self-splicing fitness (ln)” value is -1.43 ± 0.086 (30 °C) and -0.286 ± 0.13 (37 °C).

Consider GUCCAGCAAUAUUACGAGCA, for which the “self-splicing fitness (ln)” value reads like this: (30 °C) -0.945 ± 0.12; (37 °C) -1.08 ± 0.15.

AGUGAGCAAUAUUACGAUUA: the “self-splicing fitness (ln)” value is -2.67 ± 0.3 (30 °C) and -1.47 ± 0.37 (37 °C).

As for CUGCAGCAAUAUUACGGAUG, the “self-splicing fitness (ln)” value runs as follows: (30 °C) -1.16 ± 0.061; (37 °C) -0.415 ± 0.081.

Turning to UAUUAGCAAUAUUACGCUGU, the “self-splicing fitness (ln)” value was -2.57 ± 0.23 (30 °C) and 0.0696 ± 0.22 (37 °C).

In the case of UGCGAGCAAUAUUACGCCUG, the “self-splicing fitness (ln)” value reads like this: (30 °C) -3.98 ± 0.22; (37 °C) -0.862 ± 0.13.

For AGUGAGCAAUAUUACGUCCG, the “self-splicing fitness (ln)” value (37 °C) is -0.894 ± 0.22.

Take AUCGAGCAAUAUUACGACCU: the “self-splicing fitness (ln)” value is, setting by setting: (30 °C) -0.95 ± 0.092; (37 °C) -0.344 ± 0.15.

AAAGAGCAAUAUUACGUCUU: the “self-splicing fitness (ln)” value reads like this: (30 °C) -2.22 ± 0.091; (37 °C) -1.41 ± 0.1.

As to AUUCAGCAAUAUUACGGCGC, the “self-splicing fitness (ln)” value by setting is: (30 °C) -0.389 ± 0.099; (37 °C) -0.346 ± 0.13.

For the sequence AGGAAGCAAUAUUACGUUUC, the “self-splicing fitness (ln)” value is -3.65 ± 0.33 (30 °C) and -1.86 ± 0.36 (37 °C).

For GGCUAGCAAUAUUACGCAGU, the “self-splicing fitness (ln)” value (30 °C) was -1.78 ± 0.34.

As for UGAUAGCAAUAUUACGCUCC, the “self-splicing fitness (ln)” value (37 °C) is -0.916 ± 0.3.

On to CUAUAGCAAUAUUACGGGUA, for which the “self-splicing fitness (ln)” value (30 °C) is -2.54 ± 0.19 and the “self-splicing fitness (ln)” value (37 °C) is -2.34 ± 0.21.

For the sequence UUAAAGCAAUAUUACGCCAA, the “self-splicing fitness (ln)” value (30 °C) was 0.638 ± 0.29 and the “self-splicing fitness (ln)” value (37 °C) is -0.283 ± 0.39.

Turning to UGGGAGCAAUAUUACGGGAA, the “self-splicing fitness (ln)” value was -2.98 ± 0.3 (30 °C) and -1.87 ± 0.24 (37 °C).

For the sequence GGUGAGCAAUAUUACGAGGA, the “self-splicing fitness (ln)” value was -1.95 ± 0.39 (30 °C) and -2.02 ± 0.33 (37 °C).

Regarding ACAGAGCAAUAUUACGCCAC, the “self-splicing fitness (ln)” value was -2.45 ± 0.38 (30 °C) and -1.33 ± 0.43 (37 °C).

In the case of GUGGAGCAAUAUUACGGCUU, where the note is “30 °C”, the “self-splicing fitness (ln)” value is -1.6 ± 0.28.

With UAUUAGCAAUAUUACGCUUU, the “self-splicing fitness (ln)” value runs as follows: (30 °C) -2.01 ± 0.16; (37 °C) -0.435 ± 0.18.

As for CCUAAGCAAUAUUACGAGUC, the “self-splicing fitness (ln)” value (30 °C) was -3.77 ± 0.22.

With AGAUAGCAAUAUUACGAUAU, the “self-splicing fitness (ln)” value by setting is: (30 °C) -1.02 ± 0.11; (37 °C) -0.119 ± 0.14.

UCGAAGCAAUAUUACGGGAG: the “self-splicing fitness (ln)” value reads like this: (30 °C) -3.68 ± 0.33; (37 °C) -2.91 ± 0.31.

Turning to CCUUAGCAAUAUUACGCCGA, the “self-splicing fitness (ln)” value runs as follows: (30 °C) -2.16 ± 0.35; (37 °C) -1.98 ± 0.46.

With CUACAGCAAUAUUACGAUAA, the “self-splicing fitness (ln)” value is -3.02 ± 0.15 (30 °C) and -1.49 ± 0.12 (37 °C).

With GCGAAGCAAUAUUACGACAC, the “self-splicing fitness (ln)” value is -0.709 ± 0.21 (30 °C) and 0.892 ± 0.34 (37 °C).

For the sequence UCGCAGCAAUAUUACGAAUG, the “self-splicing fitness (ln)” value (30 °C) was -3.42 ± 0.23 and the “self-splicing fitness (ln)” value (37 °C) is -4.35 ± 0.42.

For AUCCAGCAAUAUUACGAGAU, the “self-splicing fitness (ln)” value is, setting by setting: (30 °C) -3.77 ± 0.2; (37 °C) -2.22 ± 0.19.

Consider ACUCAGCAAUAUUACGUUAC, for which the “self-splicing fitness (ln)” value was -4.33 ± 0.26 (30 °C) and -2.31 ± 0.18 (37 °C).

Take UCCAAGCAAUAUUACGUGGA: the “self-splicing fitness (ln)” value was -2.9 ± 0.17 (30 °C) and -3.47 ± 0.29 (37 °C).

Take GAAUAGCAAUAUUACGUGAC: the “self-splicing fitness (ln)” value is -3.51 ± 0.28 (30 °C) and -1.43 ± 0.2 (37 °C).

Take CCUUAGCAAUAUUACGGAGG: the “self-splicing fitness (ln)” value was -3.99 ± 0.41 (30 °C) and -3.11 ± 0.37 (37 °C).

For the sequence UAGUAGCAAUAUUACGAGAG, the “self-splicing fitness (ln)” value runs as follows: (30 °C) -3.43 ± 0.24; (37 °C) -2.67 ± 0.18.

On to GUGUAGCAAUAUUACGUGAA, for which the “self-splicing fitness (ln)” value (30 °C) was -1.94 ± 0.19 and the “self-splicing fitness (ln)” value (37 °C) was -0.954 ± 0.2.

Regarding GGCCAGCAAUAUUACGAGUA, the “self-splicing fitness (ln)” value runs as follows: (30 °C) -2.59 ± 0.12; (37 °C) -2.05 ± 0.12.

Take UACUAGCAAUAUUACGGUAU: the “self-splicing fitness (ln)” value reads like this: (30 °C) -2.78 ± 0.33; (37 °C) -2.63 ± 0.36.

With ACUUAGCAAUAUUACGCCGG, the “self-splicing fitness (ln)” value reads like this: (30 °C) -1.08 ± 0.14; (37 °C) -0.478 ± 0.18.

Take AGUGAGCAAUAUUACGCGAG: the “self-splicing fitness (ln)” value (30 °C) was -2.91 ± 0.49.

For GCCGAGCAAUAUUACGAUCU, the “self-splicing fitness (ln)” value (37 °C) is -0.908 ± 0.4.
